In US20140120625:

Target: FLPe (thermostable FLP variant) (UniProt P03870)
Test: cell_activity

UniProt P03870, sequence (P03870 whole entry, change not shown): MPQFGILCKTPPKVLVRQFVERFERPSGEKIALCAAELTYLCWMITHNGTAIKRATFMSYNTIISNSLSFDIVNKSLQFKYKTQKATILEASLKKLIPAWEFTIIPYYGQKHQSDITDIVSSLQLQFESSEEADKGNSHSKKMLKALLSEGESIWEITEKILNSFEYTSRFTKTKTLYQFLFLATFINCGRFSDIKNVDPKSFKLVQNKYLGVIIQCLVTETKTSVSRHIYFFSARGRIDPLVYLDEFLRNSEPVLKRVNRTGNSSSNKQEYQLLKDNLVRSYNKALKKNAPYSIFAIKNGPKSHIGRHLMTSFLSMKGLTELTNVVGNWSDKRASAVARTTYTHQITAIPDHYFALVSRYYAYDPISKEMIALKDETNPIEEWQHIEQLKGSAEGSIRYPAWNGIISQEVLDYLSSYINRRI

| Sequence | binding signal (simultaneous four-locus gene swapping frequency in A. niger M1146, FRT-F/FRT-F3 pair) [fold vs FLP] | binding signal (same assay, paired with FRT-F) [fold vs FLP] |
| --- | --- | --- |
| TTGAAGTTCCTATTCCGAGTTCCTATTCTCTAGAAAGTATAGGAACTTC (double strand) [FRT-F] | 3 |  |
| TTGAAGTTCCTATTCCGAGTTCCTATTCTTCAAATAGTATAGGAACTTCA (double strand) [FRT-F3] |  | 3 |
